This passage reports Kd results from article PMC5599116.

This assay concerns the target recombinant human CD62L (L-selectin) full extracellular region, native 1 signal sequence construct (human). Description: SPR.

As a reminder, the Kd is the constant that tells how readily two partners part at equilibrium.

Turning to “mucin from porcine stomach type II (PSM-II) (natural protein)”, the dissociation constant Kd was 55 µM.
